The conditions of data set [1]: in vitro skin permeation; cited from earlier work.
The conditions of data set [2]: in vitro and in vivo studies; cited from earlier work.
Data set [3] has as its system PTH receptor (rat osteosarcoma cell line UMR106). Nature of the data set: adenylate cyclase stimulation / cAMP in UMR106 cells (PTH receptor activation). In kind it is cell-based. To be noted: for EC50: cAMP, 5 minutes, 1 mM IBMX, read-out: EC-50 (effective concentration). As to the method:
The peptide was then desalted and partially purified on a SepPak column. Individual peaks were isolated and analyzed by electrospray mass spectrometry to determine the composition.
PTH concentrations were determined by OD280 using an extinction coefficient of 6600 for the recombinant peptide and 5500 for the synthetic peptide. […] Activation of the PTH receptor leads to an intracellular rise in cAMP concentration.
The UMR106 cells were seeded at about 2.5×10^5 per well in a 48 well dish and allowed to grow to confluence. Assays were performed on cells 3-5 days postconfluence. The media (Dulbecco's modified Eagle's medium, DMEM, with fetal calf serum) was removed, and 1 mL of fresh media was applied. PTH (recombinant or synthetic) at various concentrations and 3-isobutyl-1-methyl xanthine (IBMX) at 1 mM final concentration were then added to each well of the plate, which was then incubated for 5 minutes at room temperature. The media was then removed and the cells quickly washed with ice cold PBS. The cells were then extracted twice with 1 mL of absolute ethanol. The two extractions were combined and the ethanol removed by evaporation. The extract was then redissolved in 1 mL of scintillation proximity buffer (SPA buffer) (Amersham, Arlington Heights, Ill.). The cAMP concentration was determined by assay using a scintillation proximity assay (SPA) kit available from Amersham.

Data set [4] in a line: Circular dichroism in varying trifluoroethanol concentrations, PTH analogs. Conditions: for [θ]222 (mean residue ellipticity): pH 6.5 10 mM cacodylate, 20° C; for helicity: 30% (v/v) TFE. The data set is classed as physicochemical. Also on record: [θ]222 (mean residue ellipticity): unit not given here. As to the method: The trifluoroethanol (TFE) circular dichroism studies were done using an AVIV Associates, Inc. Model 62DS Circular Dichroism Spectrometer. Protein concentrations were determined from absorbance readings using calculated extinction coefficients for the analogs in 10 mM ionic buffer. TFE titrations were done from 0 to 50% TFE, scanning from 250 to 200 nm at 20° C. for each TFE sample.
On the technique in general: Circular dichroism is the unequal absorption of left and right circularly polarised light.

Data set [5] is described as follows: Stability when incubated with stripped stratum corneum. The data set is classed as in vitro ADME, human.
Data set [6] can be described thus: In vitro electrotransport flux of the PTH analogs. To be noted: retro-inverso versions, 1 mM, pH 5.0, 0.1 mA/cm^2, 32° C, BSA/Tween 20 receptor.
Data set [7] concerns the target T1, PTH receptor (rat, UniProt P25961).
Target sequence in this assay (P25961 27-591): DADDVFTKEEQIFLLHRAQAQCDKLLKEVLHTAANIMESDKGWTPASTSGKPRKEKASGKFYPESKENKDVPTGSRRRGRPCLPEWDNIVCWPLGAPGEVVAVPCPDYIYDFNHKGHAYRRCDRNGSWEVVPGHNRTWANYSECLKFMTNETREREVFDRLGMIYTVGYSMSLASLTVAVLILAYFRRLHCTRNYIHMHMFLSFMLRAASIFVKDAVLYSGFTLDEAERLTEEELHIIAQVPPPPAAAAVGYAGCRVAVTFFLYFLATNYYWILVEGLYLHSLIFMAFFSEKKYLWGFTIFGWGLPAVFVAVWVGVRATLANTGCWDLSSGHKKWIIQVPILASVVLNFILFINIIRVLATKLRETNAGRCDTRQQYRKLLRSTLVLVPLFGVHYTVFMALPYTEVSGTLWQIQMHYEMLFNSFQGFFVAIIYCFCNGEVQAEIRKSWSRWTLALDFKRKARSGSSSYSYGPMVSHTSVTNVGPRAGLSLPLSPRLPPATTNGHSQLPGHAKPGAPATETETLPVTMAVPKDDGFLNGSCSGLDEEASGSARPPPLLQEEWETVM
Another data set deals with PTH receptor (rat) (UniProt P25961).
In data set [8] the target is T1, PTH receptor. Nature of the data set: Kd reported in the PTH analog activity assay on UMR106 cells; the method used for the Kd is not described.

Ends that are not written are not given here.

Chain of PTH receptor (rat) (P25961 27-591): as above

Regarding `NC(=O)[C@@H]1CCCN1C(=O)[C@H](Cc1cnc[nH]1)NC(=O)[C@@H]1CCC(=O)N1` [thyrotropin releasing hormone], the “electrotransport flux compared with passive diffusional flux” value in data set [1] was “higher than passive diffusional flux”.

`NC(=O)CC[C@@H]1NC(=O)[C@H](Cc2ccccc2)NC(=O)[C@H](Cc2ccc(O)cc2)NC(=O)[C@@H](N)CSSC[C@@H](C(=O)N2CCC[C@H]2C(=O)N[C@@H](CCCN=C(N)N)C(=O)NCC(N)=O)NC(=O)[C@H](CC(N)=O)NC1=O` [vasopressin]: the “transdermal delivery via electrotransport” value in [2] is reported as “possible”.

In the case of “PTH analog 1: FIG. 1B (SEQ ID NO:7): Met8Leu, Leu15Arg, Met18Leu, Glu19Arg, Glu22Arg, Gln29Lys, Phe34Tyr, homoserine lactone at the C-terminus”, the EC50 in data set [3] (UMR106 cells) came out at 0.9 nM. The “[θ]222 (mean residue ellipticity)” value is -4205 in data set [4] (0% TFE); -9333 in data set [4] (10% TFE); -23098 in [4] (20% TFE); -26334 in [4] (30% TFE); -27580 in data set [4] (40% TFE); -27705 in [4] (50% TFE). Besides, the helicity entry in data set [4] was “about 80%”. Also, the “stability when incubated with stripped stratum corneum” value in data set [5] is reported as “not stable”. Besides, the “median mass flux (95% confidence interval)” value in data set [6] (95% CI: analog 1 0.1 to 0.7, analog 2 2.1 to 4.2) came to 0.3 μg cm^-2 h^-1. The “average mass flux ± sd” value in data set [6] (sd: analog 1 ±2.3, analog 2 ±3.7) is reported as 1.4 μg cm^-2 h^-1.

Take “PTH analog 3: amino acid sequence of FIG. 1D (SEQ ID NO:9); recombinantly synthesized (SVSEIQLMHNLGKHLNSMERPEWLRKKPQDVHNF)”: the “activity (ability to stimulate adenylate cyclase)” value in [3] (UMR106 cells) is reported as “no measurable activity”. Also, the “[θ]222 (mean residue ellipticity)” value in data set [4] (0% TFE) is given as -3867; in [4] (10% TFE), -6479; in [4] (20% TFE) it was -12329; in data set [4] (30% TFE) it was -15161; in data set [4] (40% TFE), -15191; in data set [4] (50% TFE), -15395. Further, the helicity entry in data set [4] was “about 15%”. Also, in data set [4] (no TFE), the “helix in the absence of the helix-inducing TFE (in words)” value was “essentially devoid of helix”.

“Synthetic PTH having the wild-type sequence (ligand)”: the stimulation of adenylate cyclase (intracellular cAMP, scintillation proximity assay) in UMR106 cells with PTH receptor [7] came to 4.4 nM.

Take “Wild-type PTH: wild-type, parent PTH polypeptide, FIG. 1A (SEQ ID NO:6), 34 amino acid residues [reference compound]”: the EC50 in data set [3] (UMR106 cells) was 4.4 nM.

“insulin: insulin, cited electrotransport study”: the “transdermal delivery via electrotransport” value in [2] is “possible”.

Consider SVSEIQLLHNLGKHRNSLRRVRWLRKKLKDVHNY-{HSL} (ligand) [PTH analog 1 (1-35)], for which, in the data set with PTH receptor (rat), the stimulation of adenylate cyclase (intracellular cAMP, scintillation proximity assay) in UMR106 cells came to 0.9 nM. In addition, the Kd (in general, the concentration at which binding is half-saturated) with PTH receptor [8] amounted to 1.5 nM.

B1: RPTH: recombinant PTH (RPTH), HPLC purified or crude Sep-Pak purified (peptide, UniProt P01270 32-115, looked up)
Parathyroid hormone: SVSEIQLMHNLGKHLNSMERVEWLRKKLQDVHNFVALGAPLAPRDAGSQRPRKKEDNVLVESHEKSLGEADKADVNVLTKAKSQ
Regarding B1, the “adenylate cyclase stimulatory ability, crude Sep-Pak purified vs HPLC purified” value in [3] (crude Sep-Pak purified sample compared with HPLC purified RPTH) was “no significant difference in adenylate cyclase stimulatory ability”.

These data come from patent US6333189A, “Method of making an electrotransport device” (ALZA Corporation, priority 1997, dated 2001).
